Results published in the supplement of paper PMC10899765.

Experiments:
Settings in all cases: 20 nM; 72 h
MCF10A [1] = assay: one-nucleolus phenotype percent effect (relative to siNT 0% and siNOL11 100%); higher = more cells with one nucleolus (ribosome biogenesis inhibition)
Protocol: (§1)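 After 72 h, cells were fixed and stained with Hoechst and anti-fibrillarin, and nucleoli per nucleus were counted with CellProfiler. Values are plate-adjusted percent effect for the one-nucleolus and 5+ nucleoli phenotypes, normalised to siNT (0%) and to the positive controls siNOL11 or siKIF11 (100%), as the mean of biological triplicates. Percent viability is the nuclei count relative to siNT.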

MCF10A [2] = assay: 5+ nucleoli phenotype percent effect (relative to siNT 0% and siKIF11 100%); higher = more cells with five or more nucleoli
Protocol: as §1

MCF10A [3] = assay: percent viability (nuclei count relative to siNT); higher = more viable cells
Protocol: as §1

Sequence | one-nucleolus phenotype percent effect (MCF10A [1]) | 5+ nucleoli phenotype percent effect (MCF10A [2]) | percent viability (MCF10A [3])
UCCCUGAGACCCUUUAACCUGUGA [hsa-miR-125a-5p] | -18.8% | 28.8% | 117%
UCCCUGAGCAAAGCCAC [hsa-miR-4319] | -1.9% | 9.87% | 59.9%
UCCCUGCCCCCAUACUCCCAG [hsa-miR-6752-3p] | 14.5% | -28.9% | 28.7%
UCCCUGGAGUUUCUUCUU [hsa-miR-4308] | -7.67% | 27.5% | 53.7%
UCCCUGUCCUCCAGGAGCUCACG [hsa-miR-339-5p] | 0.467% | -0.871% | 51.6%
UCCCUUCUUCCUGGGCCCUCA [hsa-miR-5088-3p] | -36.6% | 70.3% | 59.2%
UCCCUUGUCUCCUUUCCCUAG [hsa-miR-6780b-3p] | -21.9% | 32.5% | 68.9%
UCCGAACUCUCCAUUCCUCUGC [hsa-miR-6716-3p] | -19.3% | 35.3% | 166%
UCCGAGCCUGGGUCUCCCUCUU [hsa-miR-615-3p] | -6.23% | -0.788% | 74.9%
UCCGGUUCUCAGGGCUCCACC [hsa-miR-671-3p] | 54.3% | -33.5% | 15.2%
UCCGUACAAACUCUGCUGUG [hsa-miR-3678-5p] | 39.4% | -49.2% | 64.4%
UCCGUCUCAGUUACUUUAUAGC [hsa-miR-340-3p] | 1.48% | 26.3% | 74%
UCCUAAAUCUGAAAGUCCAAAA [hsa-miR-5009-3p] | -25.9% | 46.2% | 117%
UCCUACGCUGCUCUCUCACUCC [hsa-miR-6761-3p] | -18.4% | 14.2% | 43.5%
UCCUCAUCACACUGCACCUUAG [hsa-miR-6072] | 13.4% | -18.4% | 32.4%
UCCUCCUCUACCUCAUCCCAGU [hsa-miR-5193] | 9.86% | -13.6% | 35.1%
UCCUCUUCUCCCUCCUCCCAG [hsa-miR-877-3p] | 6.33% | -15.4% | 59%
UCCUGCCACCUCCUCCGCAG [hsa-miR-6727-3p] | 19.2% | -26.4% | 32.5%
UCCUGCCUUCCUCUGCACCAG [hsa-miR-6747-3p] | 16% | -28.9% | 27%
UCCUGCGCGUCCCAGAUGCCC [hsa-miR-1539] | 15.6% | -2.94% | 60.9%
UCCUGCGUAGGAUCUGAGGAGU [hsa-miR-3193] | -18.1% | 10.1% | 58.9%
UCCUGUACUGAGCUGCCCCGAG [hsa-miR-486-5p] | 4.53% | 1.79% | 41.3%
UCCUGUCCCUGUCUCCUACAG [hsa-miR-6748-3p] | -15.9% | 17% | 47%

Sequence | one-nucleolus phenotype percent effect (MCF10A [1]) | 5+ nucleoli phenotype percent effect (MCF10A [2]) | percent viability (MCF10A [3])
UCCUGUCUUUCCUUGUUGGAGC [hsa-miR-5699] | -26.2% | 51.3% | 186%
UCCUUCAUUCCACCGGAGUCUG [hsa-miR-205-5p] | 21% | -17.6% | 67.4%
UCCUUCUGCUCCGUCCCCCAG [hsa-miR-1237-3p] | -0.823% | 6.7% | 52.7%
UCCUUUGCCUAUUCUAUUUAAG [hsa-miR-3121-5p] | -3.46% | 17% | 56.5%
UCGACAGCACGACACUGCCUUC [hsa-miR-196b-3p] | 2.46% | 5.68% | 65.2%
UCGACCGGACCUCGACCGGCU [hsa-miR-1307-5p] | -17.3% | 13.2% | 78.8%
UCGAGGACUGGUGGAAGGGCCUU [hsa-miR-3131] | 8.15% | -6.74% | 47.9%
UCGAGGAGCUCACAGUCU [hsa-miR-151b] | 11.9% | 10.8% | 57.3%
UCGAGGAGCUCACAGUCUAGU [hsa-miR-151a-5p] | -6% | 9.84% | 86.8%
UCGCAGACAGGGACACAUGGAGA [hsa-miR-6767-5p] | -5.76% | 0.353% | 39%
UCGCCUCCUCCUCUCCC [hsa-miR-1281] | 10.9% | -24.6% | 60.9%
UCGCGCCCCGGCUCCCGUUC [hsa-miR-1292-3p] | -6.7% | 9.03% | 64.3%
UCGCGGUUUGUGCCAGAUGACG [hsa-miR-579-5p] | -22.2% | 41.8% | 64.6%
UCGGAUCCGUCUGAGCUUGGCU [hsa-miR-127-3p] | 14.4% | -26.8% | 41.5%
UCGGCCUGACCACCCACCCCAC [hsa-miR-1234-3p] | -20.1% | 54.9% | 75.7%
UCGGCCUGGGGAGGAGGAAGGG [hsa-miR-7107-5p] | -28.2% | 26.1% | 77.4%
UCGGCUCUCUCCCUCACCCUAG [hsa-miR-6741-3p] | 9.37% | -4.11% | 33.2%
UCGGGCCUGGGGUUGGGGGAGC [hsa-miR-6749-5p] | -10.1% | 21.9% | 37.7%
UCGGGCGCAAGAGCACUGCAGU [hsa-miR-6499-5p] | 0.719% | -9.6% | 43.5%
UCGGGGAGUCUGGGGUCCGGAAU [hsa-miR-6889-5p] | 6.17% | 3.52% | 30.7%
UCGGGGAUCAUCAUGUCACGAGA [hsa-miR-542-5p] | 1.02% | 30.4% | 81.9%
UCGGGGCAUGGGGGAGGGAGGCUGG [hsa-miR-6775-5p] | -21.8% | 35.1% | 57.8%
